Laboratory results published in PMC4911367.

What was measured:
[1] = target: RLC-depleted porcine cardiac (PC) myosin (porcine) (UniProt P79293); assay: co-sedimentation; ~2.8 uM RLC-depleted PC myosin titrated with 0.1-14 uM human WT or IVS6-1 RLC (molar ratio 0.1-5.0) in 0.4 M KCl, 50 mM MOPS pH 7.0, 2 mM MgCl2, 1 mM DTT, with BSA, 30 min room temperature; myosin precipitated with 13 vol ice-cold water, pellet on SDS-PAGE, RLC/ELC band ratio; apparent Kd
[2] = target: RLC-depleted porcine cardiac (PC) myosin (porcine) (UniProt P79293); assay: reconstitution of RLC-depleted skinned muscle strips, SDS-PAGE; skinned porcine papillary muscle strips depleted of RLC with CDTA/Triton X-100, incubated with 40 uM RLC-WT or IVS6-1 and 2 mM DTT in pCa 8 solution, then RLC and TnC; washed, SDS-PAGE
[3] = target: pyrene labeled rabbit skeletal F-actin (rabbit) (UniProt P68135); assay: stopped-flow pyrene fluorescence; 0.25 uM myosin with 0.25 uM pyrene labeled F-actin (0.25 uM phalloidin) in rigor buffer 0.4 M KCl, 1 mM DTT, 10 mM MOPS pH 7.0, mixed 1:1 with 10-150 uM MgATP; MgATP-induced dissociation, single exponential fit
[4] = target: pyrene labeled rabbit skeletal F-actin (rabbit) (UniProt P68135); assay: other fluorescence titration; 0.5 uM pyrene labeled F-actin titrated with myosin in 0.05 uM increments to ~2 fold molar excess, rigor conditions; excitation 340 nm, emission 407 nm; quadratic fit; apparent Kd and stoichiometry n
[5] = target: pyrene labeled rabbit skeletal F-actin (rabbit) (UniProt P68135)

Q: Which results are given for “human cardiac RLC IVS6-1 (c403-1G>C) splice site mutant protein (from UniProt P10916 1-134) (natural protein)”?
A: Kd [1]: 4410 nM; percent fiber reconstitution [2]: 100%

Q: With “native porcine cardiac (PC) myosin (from UniProt P79293 1-1935) (complex)” as the molecule, how does the k1, MgATP-induced actin-myosin dissociation rate at 10 μM MgATP [3] read?
A: 6.2 s⁻¹

Q: And the k1, MgATP-induced actin-myosin dissociation rate at 25 μM MgATP [3]?
A: 15.8 s⁻¹

Q: And the k1, MgATP-induced actin-myosin dissociation rate at 40 μM MgATP [3]?
A: 24.5 s⁻¹

Q: And the k1, MgATP-induced actin-myosin dissociation rate at 60 μM MgATP [3]?
A: 33.4 s⁻¹

Q: And the k1, MgATP-induced actin-myosin dissociation rate at 80 μM MgATP [3]?
A: 47.2 s⁻¹

Q: What about the k1, MgATP-induced actin-myosin dissociation rate at 125 μM MgATP [3] of the same molecule?
A: 65.9 s⁻¹

Q: And the k1, MgATP-induced actin-myosin dissociation rate at 150 μM MgATP [3]?
A: 86.8 s⁻¹

Q: And the Kd [4]?
A: 2.9 nM

Q: And the stoichiometry N [4]?
A: 0.47

Q: And the Km (actin) of actin-activated myosin ATPase activity [5]?
A: 1.93 µM

Q: And the Vmax of actin-activated myosin ATPase activity (F-actin 0.1-25 uM, ~1.9 uM myosin, 30°C) [5]?
A: 0.24 s⁻¹

Q: Which k1, MgATP-induced actin-myosin dissociation rate at 10 μM MgATP [3] does the source give for “porcine cardiac myosin reconstituted with human cardiac RLC IVS6-1 (from UniProt P79293 1-1935; P10916 1-134) (complex)” here?
A: 5.5 s⁻¹

Q: And the k1, MgATP-induced actin-myosin dissociation rate at 25 μM MgATP [3]?
A: 14.4 s⁻¹

Q: And the k1, MgATP-induced actin-myosin dissociation rate at 40 μM MgATP [3]?
A: 21 s⁻¹

Q: What about the k1, MgATP-induced actin-myosin dissociation rate at 60 μM MgATP [3] of the same molecule?
A: 30.5 s⁻¹

Q: What about the k1, MgATP-induced actin-myosin dissociation rate at 80 μM MgATP [3] of the same molecule?
A: 41.4 s⁻¹

Q: And the k1, MgATP-induced actin-myosin dissociation rate at 125 μM MgATP [3]?
A: 57.5 s⁻¹

Q: And the k1, MgATP-induced actin-myosin dissociation rate at 150 μM MgATP [3]?
A: 67.8 s⁻¹

Q: And the Kd [4]?
A: 16.7 nM

Q: And the stoichiometry N [4]?
A: 0.59

Q: What about the Km (actin) of actin-activated myosin ATPase activity [5] of the same molecule?
A: 3.33 µM

Q: What about the Vmax of actin-activated myosin ATPase activity (F-actin 0.1-25 uM, ~1.9 uM myosin, 30°C) [5] of the same molecule?
A: 0.15 s⁻¹

Q: What does the source list for “porcine cardiac myosin reconstituted with human cardiac RLC WT (from UniProt P79293 1-1935; P10916 1-166) (complex)”?
A: k1, MgATP-induced actin-myosin dissociation rate at 10 μM MgATP [3]: 7.4 s⁻¹; k1, MgATP-induced actin-myosin dissociation rate at 25 μM MgATP [3]: 15.6 s⁻¹; k1, MgATP-induced actin-myosin dissociation rate at 40 μM MgATP [3]: 19.9 s⁻¹; k1, MgATP-induced actin-myosin dissociation rate at 60 μM MgATP [3]: 36 s⁻¹; k1, MgATP-induced actin-myosin dissociation rate at 80 μM MgATP [3]: 50.4 s⁻¹; k1, MgATP-induced actin-myosin dissociation rate at 125 μM MgATP [3]: 70.4 s⁻¹; k1, MgATP-induced actin-myosin dissociation rate at 150 μM MgATP [3]: 88.7 s⁻¹; Kd [4]: 4.6 nM; stoichiometry N [4]: 0.51; Km (actin) of actin-activated myosin ATPase activity [5]: 3.67 µM; Vmax of actin-activated myosin ATPase activity (F-actin 0.1-25 uM, ~1.9 uM myosin, 30°C) [5]: 0.25 s⁻¹

B1: wild-type (WT) human cardiac (ventricular/slow-twitch skeletal) myosin regulatory light chain (natural protein)
chain: MAPKKAKKRAGGANSNVFSMFEQTQIQEFKEAFTIMDQNRDGFIDKNDLRDTFAALGRVNVKNEEIDEMIKEAPGPINFTVFLTMFGEKLKGADPEETILNAFKVFDPEGKGVLKADYVREMLTTQAERFSKEEVDQMFAAFPPDVTGNLDYKNLVHIITHGEEKD
Q: How did the Kd [1] turn out when B1 was run?
A: 1420 nM

Q: And the percent fiber reconstitution [2]?
A: 100%
